Results reported in patent publication US20240092913A1 (HANALL BIOPHARMA, published 2024).

Columns and labels:
water-soluble hFcRn [1] = target: T1, water-soluble hFcRn (human, UniProt P55899 24-297; P61769 21-119, limits assumed); experiment: SPR (Proteon XPR36, GLC chip), shFcRn immobilised, antibody as analyte, pH 6.0, 1:1 Langmuir, mean of six runs
T1 construct: also called shFcRn; human FcRn
Method: (§1) In kinetic analysis, a 1:1 Langmuir binding model was used, the analysis was repeated six times at each of pH 6.0 and pH 7.4, and the mean KD value was calculated. […], the chip was activated under the conditions of EDAC/NHS 0.5×, 30 μL/min and 300 sec. For immobilization, shFcRn was diluted in acetate buffer (pH 5.5) to concentrations of 2 μg/mL and 250 μL, and the dilution was allowed to flow on the chip at a rate of 30 μL/min. When an immobilization level of 200-300 RU was reached, the reaction was stopped. Then, deactivation was performed using ethanolamine at a rate of 30 μL/min for 300 sec. […] Sample dilution was performed using 1× PBST (pH 7.4) or 1× PBST (pH 6.0) at each pH. For sample analysis, association was performed at 50 μL/min for 200 sec, and the dissociation step was performed at 50 μL/min for 600 sec, after which regeneration was performed using glycine buffer (pH 2.5) at 100 μL/min for 18 sec. The kinetic analysis of each sample was repeated six times, and then the mean antigen binding affinity (KD) was measured.

water-soluble hFcRn [2] = target: T1, water-soluble hFcRn; experiment: SPR (Proteon XPR36, GLC chip), shFcRn immobilised, antibody as analyte, pH 7.4, 1:1 Langmuir, mean of six runs
Method: as §1

[3] = target: T2, human FcRn on human FcRn-expressing stable HEK293 cells (human, UniProt P55899 24-365; P61769 21-119); experiment: FACS on human FcRn-expressing stable HEK293 cells, pH 7.4, 0.11-250 nM antibody, 4 parameter logistic regression of MFI
T2 construct: also called hFcRn-expressing HEK293 cells; human FcRn-overexpressing HEK293 cells
Method: The plate was mounted in a rotator at 4° C. and rotated at an angle of 15° and 10 rpm for 90 minutes. […] The FACS measurement was performed under the following conditions: FS 108 volts, SS 426 volts, FL1 324 volts, FL2 300 volts. These cells were analyzed by FACS using BD FACSDiva™ v6.1.3 software (BD Bioscience).

[4] = target: T2, human FcRn on human FcRn-expressing …; experiment: FACS competition on human FcRn-overexpressing HEK293 cells, pH 6.0, blocking of Alexa488-hIgG1, antibody 0.01-200 nM, 4-parameter logistic regression
Method: Each antibody sample was diluted to 400 nM, and then diluted by 4-fold serial dilution in a 96-well v-bottom plate. 50 μL of the sample diluted to a final concentration of 200 nM to 0.01 nM was added to each well. […] Finally, 40 μL of cells diluted to a cell concentration of 2.5×10⁶ cells/mL were added to each well and suspended. The plate was mounted in a rotator at 4° C. and rotated at an angle of 15° and 10 rpm for 90 minutes. After completion of the reaction, the plate was taken out of the rotator, and centrifuged at 2000 rpm for 10 minutes to remove the supernatant. 100 μL of reaction buffer was added to each well to dissolve the cell pellets, and the plate was transferred into a blue test tube. Then, 200 μL of reaction buffer was added to each well, and measurement was performed in FACS. The FACS measurement was performed under the following conditions: FS 108 volts, SS 426 volts, FL1 324 volts, FL2 300 volts. These cells were analyzed by FACS using BD FACSDiva™ v6.1.3 software (BD Bioscience). The results were expressed as mean fluorescence intensity (MFI). The MFI of the test group was processed after subtracting the measured MFI value of the cells alone (background signal).

T1 sequence (P55899 24-297 limits assumed, chain 1 of 2): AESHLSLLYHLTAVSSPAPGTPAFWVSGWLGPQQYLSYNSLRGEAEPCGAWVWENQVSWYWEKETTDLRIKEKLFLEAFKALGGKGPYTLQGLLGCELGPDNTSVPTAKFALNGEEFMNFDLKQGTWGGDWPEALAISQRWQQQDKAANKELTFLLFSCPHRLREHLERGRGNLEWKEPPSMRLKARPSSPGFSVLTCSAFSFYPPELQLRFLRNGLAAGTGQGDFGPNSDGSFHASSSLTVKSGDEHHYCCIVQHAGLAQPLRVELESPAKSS
T1 sequence (P61769 21-119 limits assumed, chain 2 of 2): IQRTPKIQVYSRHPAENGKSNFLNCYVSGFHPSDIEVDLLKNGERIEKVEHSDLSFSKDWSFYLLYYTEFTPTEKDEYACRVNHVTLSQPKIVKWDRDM
T2 sequence (P55899 24-365 limits assumed, chain 1 of 2): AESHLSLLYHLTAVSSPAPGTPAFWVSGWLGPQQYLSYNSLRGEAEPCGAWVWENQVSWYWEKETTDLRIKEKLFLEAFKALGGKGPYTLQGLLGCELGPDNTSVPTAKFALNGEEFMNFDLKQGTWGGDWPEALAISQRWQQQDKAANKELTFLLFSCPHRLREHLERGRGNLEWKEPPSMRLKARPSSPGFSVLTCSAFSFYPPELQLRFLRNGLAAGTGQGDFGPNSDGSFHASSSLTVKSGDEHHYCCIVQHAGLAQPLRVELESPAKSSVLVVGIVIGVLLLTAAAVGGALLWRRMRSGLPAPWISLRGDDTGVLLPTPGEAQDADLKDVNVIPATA
T2 sequence (P61769 21-119 limits assumed, chain 2 of 2): as the sequence (P61769 21-119 limits assumed, chain 2 of 2) above

B1: HL161C antibody (antibody, human IgG1, V domains shown)
VH: QVQLVQSGAEVKKPGASVKVSCKASGYTFTGCYMHWVRQAPGQGLEWMGRINPNSGGTNYAQKFQGRVTMTRDTSISTAYMDLSRLRSDDTAVYYCARDYSGWSFDYWGQGTLVTVSS
VL: DIQMTQSPSSLSASVGDRVTITCRASQGISNYLAWFQQKPGKAPKSLIYAASSLQSGVPSKFSGSGSGTDFTLTISSLQSEDFATYYCQQYDSYPPTFGGGTKVEIKRTVAAPSVFI
- Kd (water-soluble hFcRn [1]): 0.191 nM
- koff (water-soluble hFcRn [1]): 0.000332 s⁻¹
- kon (water-soluble hFcRn [1]): 1.74e+06 M⁻¹ s⁻¹
- Kd (water-soluble hFcRn [2]): 0.232 nM
- koff (water-soluble hFcRn [2]): 0.000316 s⁻¹
- kon (water-soluble hFcRn [2]): 1.36e+06 M⁻¹ s⁻¹

B2: HL161D antibody (antibody, human IgG1, V domains shown)
VH: QLQLQESGPGLVKPSETLSLTCTVSGGSISSSSYYWGWIRQPPGKGLEWIGNIYYSGSTYYNPSLMSRVTISVDTSKNQFSLKLSSVTAADTAVYYCARQLSYNWNDRLFDYWGQGTLVTVSS
VL: SYELTQPLSVSVALGQTARITCGGNNIGSKNVHWYQQKPGQAPVLVIYRDSNRPSGIPERFSGSNSGNTATLTISRAQAGDEADYYCQVWDSSTVVFGGGTKLTVLGQPKAAPSVTL
notes: the VL entry runs a few residues into the constant region
- Kd (water-soluble hFcRn [1]): 1.43 nM
- koff (water-soluble hFcRn [1]): 0.00138 s⁻¹
- kon (water-soluble hFcRn [1]): 970000 M⁻¹ s⁻¹
- Kd (water-soluble hFcRn [2]): 1.78 nM
- koff (water-soluble hFcRn [2]): 0.00124 s⁻¹
- kon (water-soluble hFcRn [2]): 699000 M⁻¹ s⁻¹

B3: HL161A antibody (antibody, human IgG1, V domains shown)
VH: EVQLLESGGGLVQPGGSLRLSCAASEFTFGSCVMTWVRQAPGKGLEWVSVISGSGGSTYYADSVKGRFTISRDNSKNTLYLQMNSLRAEDTAVYYCAKTPWWLRSPFFDYWGQGTLVTVSS
VL: SYVLTQPPSVSVAPGQTARITCGGNNIGSTSVHWYQQKPGQAPVLVVHDDSDRPSGIPERFSGSNSGNTATLTISRVEAGDEADYYCQVRDSSSDHVIFGGGTKLTVLGQPKAAPSVTL
- EC50 [3]: 2.46 nM
- Kd (water-soluble hFcRn [1]): 0.18 nM
- koff (water-soluble hFcRn [1]): 0.000326 s⁻¹
- kon (water-soluble hFcRn [1]): 1.81e+06 M⁻¹ s⁻¹
- Kd (water-soluble hFcRn [2]): 0.247 nM
- koff (water-soluble hFcRn [2]): 0.000327 s⁻¹
- kon (water-soluble hFcRn [2]): 1.32e+06 M⁻¹ s⁻¹
- IC50 [4]: 0.92 nM

B4: HL161B antibody (antibody, V domains shown)
VH: QLLLQESGPGLVKPSETLSLTCTVSGGSLSSSFSYWVWIRQPPGKGLEWIGTIYYSGNTYYNPSLKSRLTISVDTSKNHFSLNLSSVTAADTAVYYCARRAGILTGYLDSWGQGTLVTVSS
VL: SYVLTQSPSVSVAPGQTARITCGGNNIGSKSVHWYQQKPGQAPVLVVYDDSDRPSGIPERFSASNSGNTATLTISRVEAGDEADYYCQVWDSSSDHVVFGGGTKLTVLGQPKAAPSVTL
notes: as for B2
- EC50 [3]: 1.2 nM
- Kd (water-soluble hFcRn [1]): 0.807 nM
- koff (water-soluble hFcRn [1]): 0.000735 s⁻¹
- kon (water-soluble hFcRn [1]): 912000 M⁻¹ s⁻¹
- Kd (water-soluble hFcRn [2]): 1.76 nM
- koff (water-soluble hFcRn [2]): 0.00125 s⁻¹
- kon (water-soluble hFcRn [2]): 710000 M⁻¹ s⁻¹
- IC50 [4]: 2.24 nM
